{"source": "the DeepSol protein solubility set", "data": [{"experiment": "soluble on expression in E. coli; label from the status in PepcDB or PDB records", "values": [{"sequence": "MGSDKIHHHHHHMMLNQYQIFTMVDNLSLLHHKNDPMNKNDLINTKSTLCPCGSKQLYSKCCEPYHLSHAVAERPEHLMRSRYSAFVLRQFHYLITTHHADYLHGLTEQQLAQGDVQWLGLQVLSSKQESDHGEVTFKAWFIEDKHIDAIYECSSFIKQDGCWFYTHGQQMQTPLPSRNDACICSSGKKFKLCCAKLMR", "soluble on expression in E. coli": "not soluble"}, {"sequence": "MATSKILLYYAFTPLSDPKAVQLWQRELCESLNLRGRILISTHGINGTVGGDIDDCKAYIKKTREYPGFNRMQFKWSEGGAEDFPKLSVKVRDEIVAFGAPDELKVDENGVVGGGVHLKPQQVNELVEARGDEVVFFDGRNAMEAQIGKFKDAVVPDVETTHDFIAEIESGKYDDLKDKPVVTYCTGGIRCEILSSLMINRGFKEVYQIDGGIVRYGEQFGNKGLWEGSLYVFDKRMHMEFGEDYKEVGHCIHCDTPTNKFEHCLNEDDCRELVLMCPDCFANVETRHCKRERCAAIAADFAEQGIDPLVTS", "soluble on expression in E. coli": "not soluble"}, {"sequence": "MSLEFAMWAYPWDLLDEGPSEVERRLRDIGIDELNLATNYHTVQAFTPHSPERRTLFARASSYFEPGPEYGDLEPVPYEGMNGDWVADAATGLSDLTLNSWTVGCHNSRLGMANPEYTLESAHGDDLVFGLCPSQPAVQTYLSALVSDLSSRDEFARIELETFDYFYGTGFGWHHQKIHARLGVLGEFLLGLCFCPHCRKNAKAAGVDAERVRSTVADTIDDIVAGDVSHEHPPEEWLADHSTVAAYVDVRERTLASLYATLADAAGTTSLGYYVGAPEPGREWVVGADLQALSNHVDYYCLPAYESSSDAVIGAYNAVETVIDDVPLHIGLLPGHPAIDDEATVVDIVETLDSKGVPRLSFYNYGLLPEQSLEWVETAIETVSEGHHHHHH", "soluble on expression in E. coli": "soluble"}, {"sequence": "MNSLDSQITALYTLAHELLYLGSDGSPIYSDHFSRLNGDVLSRANTLYPHHGSTDEEEARLCLSLLMGYNATIYNNGDKEVRIQQILNRCWEVLDRLPASLLKVRLLTYCYG", "soluble on expression in E. coli": "not soluble"}, {"sequence": "MAHHHHHHMKDVDTARVLSELVNALQRVTAQPAWNTVQEPKAITFRLEDLFSTPNSVLASAATEGDSPEHGGNASEMNSPDMAAASFVNSGVGDGLGETATPLAPLREMSDHFSSNKKYAEEGLQDVFTMLQRLIDGTYSTAGCAALACMGQEIDKMITLMRPVALIDMRAAVYMNSLCSNIAAAKESRMQLNAPLVWDFVTNTVQTYITDHPVLYTALVAISNLSYLKDLKLTREDCGVLSRLIYPVYTEVHIVEVWAAMICNLTAHHPETVQVFLELGVVEVLERLVLYFGEEGRTVIRCLQCLSNLSMGFITGHSPALAE", "soluble on expression in E. coli": "not soluble"}, {"sequence": "MIHIDKNVRTSGAYVMYKNSFVFQVGPTSKGDTLGVVRLGGHKEADETAVETAKREVEEEASIDITILNSPTTYYKEYWNAQSKKLKVENKVNPILIIDSPDESLSIMYVAYSKMQPKPSSETKGLLLLSLNDIELICTGKITLNDYINQGGVSILKEKMDKELILQPFPQLMFLSELLKEDPVLLQQFLNLEHHHHHH", "soluble on expression in E. coli": "soluble"}, {"sequence": "MRRKNLFWDDVYKGTPPWDLDHPQPAFEALIKNGEIKPGRALDIGCGRGENAIILAMNGCDVIGIDLAENAISDAKAKATERHVKVKFVVEDALQMNRLFEEGEFDVVIDSGLFHVMMDEQRRVFAQQVHRVLREGGKYFMLCFSDKEPGEYELPRRLSKAEIESTFSPVFDITYIKEAVFDSLLSPSRRKAYLLSATRSLEHHHHHH", "soluble on expression in E. coli": "not soluble"}, {"sequence": "MGSDKIHHHHHHMRVEIIFLGCGGGRWATITQKKATGGFRIHTNELRMHVDPGPGAIVRLNELKISPWRTNALFISHCHPDHYTDGEIIVEAITQGMTKKRGVFLGSLSVVEGFGEYEYVVSKYHQSKLEEVRVLYPGDSAELYDTTIKATHTKHGDPFGIGFRLSTIYGDIGYTSDTEFIPQLIEDFDGVRILIANIVRKKNERIKGHLCSNDAIDLINSMNKKPELLIMNHMGVKMTNPQIEAEYISQNTGIEVIPARLGLKVELLNGKYKYQLIK", "soluble on expression in E. coli": "not soluble"}, {"sequence": "PIVLFPGQQATLSPQGISSPSPFDHTAITAWLRNQLVFYDTPLAEVVDTLNRHRHGRIFITNQKLKALKVSGVFSTDEPDTALDVMINTLPIHLLRLTDYLVLI", "soluble on expression in E. coli": "not soluble"}]}]}
